According to paper PMC11964265, “Eating the brain - A multidisciplinary study provides new insights into the mechanisms underlying the cytopathogenicity of Naegleria fowleri” (PLOS Pathogens, 2025):

Target: the molecule itself
Assay: SEC; analytical size-exclusion chromatography, Superdex 200 Increase 10/300 GL, 20 mM Tris-HCl, 150 mM NaCl, pH 7.5; mass from calibration with Gel Filtration Standard (Bio-Rad)

B1: Naegleria fowleri lysozyme (recombinant) (natural protein)
chain: MSSYYTKEQFFRALHQVESKGQLNPPDGDKGRAIGPLQIWEVYWKDSGIQESYQSVRKFEIAKKCVNRFMKRYAENEWGPTMTIDQVEKCARIHNGGPRGHLKPETDDYWERFKEALENLDDEEVVVVEENDNNDDDQDDNEEESKDHRELLKIGMSGADVEEIQQQLADLGYDLGSYGADGKFGKATQQAVMKFQQDHDLAVDGIVGKETRKALNLEKGEDDQEQQEVADDQQEDDDEQQQQQNKDQPQEQDEEETTNEVKEEEQNDDEHEDPQEEEEQQQEDEQEDPQEEQQEDEDQQEDNDEENDQQQEDDDDQEQQQEEEEQEDPQEEEEQQNDDDDQQDDMEEQQDGDDDNDDDDA
notes: Cloned into pET42b with NdeI/XhoI sites in the primers; Pentamer by analytical SEC only; also called Nf lysozyme; source: E. coli BL21(DE3), purified (Ni-NTA agarose, native conditions)
stoichiometry N: 5
